Assay: yeast display, Sf9 membrane polyspecificity reagent, FACS + sequencing; frameworks hold sequencing errors
In short: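 Galactose-induced (36–48 hours) yeast carrying a synthetic nanobody display library were exposed to 10% biotinylated, detergent-solubilized Sf9 membrane reagent at 4 °C for 1 hour. FACS followed streptavidin microbead enrichment, using low and high (top ~1%) gates for expression (anti-HA) and reagent binding (streptavidin). Colony PCR, MiSeq 2 × 250 sequencing and CDR-length filtering followed. Labels for polyreactivity reflect the gate of origin.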

Row | Sequence | polyreactivity (PSR sort gate)
1 | QVQLVDSGGGLYQAGGSLSLTCAASGSIFDFNAMGWYRQAPGKERELVAAISGSGARTYYADSVKGRFTIARDNAKHTVYLQLNSLKPEDTAVYLCARPYVYGYDSWGQGTQVTFSS | high polyreactivity
2 | QVQLVESGGGLVQAGGSLRLSCAASGIIFERYAMGWYRQAPGKERELVAAISKGGGSRTYYADSVQGRFTISRDTAKNTVYLQMNSLKPEDTAVYYCNADIWYGDMDYWGQGTQVTVSS | high polyreactivity
3 | QVQLVESGGGLVQAGGSLRLSCAASGRTFRYYAMGWYRQAPGKERELVADISWSGGRTTYADSVKGRFTISRDNAKNTVYLQMNSLKPEDTAVYYCAKVLYYPSHVSWGQGTQVTVSS | high polyreactivity
4 | QVQLVESGGGLVQAGGSLRLSCAASGSTFSYYAMGWYRQAPGKEREFVAAISSSGGRTYYADSVKGRFTISRDNAKNTVYLQMNSLKPEDTAVYYCNAYYLAEYDYWGQGTQVTVSS | high polyreactivity
5 | QVQLVESGGGLVQAGGSLRLSCAASGITFSRNPMGWYRQAPGKEWELVAAISWSGGSTYYADSVKGRYTISRDNAKNTVYLQMNSLKPEDTAVYYCNVGRRERLEGGYWGQGTQVTVSS | high polyreactivity
6 | QVQIVESGGGLVQAGRSLRLSCAASGSTFGSYAMGWYRQAPGKDRELVAAISASGGSTYYADSVKGRFTISRDNAKHTVYLQMNSLKPEDTAVYYCATVYYSARYTYWGQGTQVTVSS | high polyreactivity
7 | QVQLVESGGGLVQAGGSLRLICAASGRIFGRNAMGWYRQAPGKERELVAVITWRGGSTYYADSVKGRFTISRDNAKNTVYLQMNSLKPEDTAVYYCAADTSRYYLPRYRTDYWGQGTQVTVSS | high polyreactivity
8 | QVQLVESGGGLVQAGGILRLSCAASGITFRCYAMVWYRQAPGKERELVAAITTGGSTKYADSVKGRFTISRDNAKKSVYLQMNSLKPEDTAVYYCAARGRYAGGYWGQGTQVTVSS | high polyreactivity
9 | QVQLVESGGGLVQAGGSLRFSCAASGSIFRVNAMGWYRQAPGKERELVAAITDGGITNYADSVKGRFTISRDNAKNTVYLQMNSLKPEDTAVYYCAADTDRDFHYVVPTYDYWGQGTQVTVSS | low polyreactivity
10 | QVQLVESGGGLVQAGGSLRLSCAASGRTLFPNVMGWYRQAPGKERELVAAITTIGGSTYYADSVKGRFTISRDNGKNTVFLQMNSLKPEDTEVYYCNARYRGRGLKFAYWGQGTQVTVSS | high polyreactivity
11 | QVQLVESGGGLVQAGGSLRLSCAASGRIFTSYAMGWYRQAPGKERELVAAISGSSASTYYADSVKGRFTISRDNAKNTVYLQMNSLKPEDTAVYYCAAYKYDYRVDTGYDYWGQGTQVTVSS | low polyreactivity
12 | QVQLVESGGGLVQAGGSLRLSCAASGFIFVRYAMGWYRQAPGKERELVAAISWRGGSTYYADSVKGRFTISRDNAKNTVYLQMNSLKPEDTAVYYCAAVTWVHRYSRFHPFVAFDYWGQGTQVTVSS | high polyreactivity
13 | QGQLVESGGGLVQAGGSLSLSCAASGSIFQGYAMGWYRQAPGNEWEFVAAISESDGSTYYADSVKGRCTISRDNAKNTVYLQMNSLKPEDTAVYYCAADKQAYVTDDYWGQGTQVTVSS | high polyreactivity
14 | QVQLVESGGGLVQAGGSLRLRCAASGSTFAVYAMGWYRQAPGKERELVATIRWNGGSTYYADSVKGRFTISRDNAKNTVYLQMNSLKPEDTAVYYCAAPPIRPNLYDYWGQGTQVTVSS | high polyreactivity
15 | QVQLVESGGGLVQAGGSLRLSCAASGSIFKLNAMGWYRQAPGKERELVAVINKSGGRTYYADSVKGRFTISRDNAKNTVYLQMNSLKPEDTAVYFCNAVSKLAVNLDYWGQGTQVTVSS | high polyreactivity
16 | QVQLVESGGGLVQAGGSLRLSCAASGFNFSHNAMGWYRQAPGKERELVAAISGSGGRTYYADSVKGRFTISRDNAKNTVDLQMNSLKPEDTAVYYCNAGRWWRRGYGYWGQVTQVTVSS | high polyreactivity
17 | QVQLVESGGCLVPAGGSLRLSCAASGSIFSYYAMGWYRQAPGKERELVAAITVRGGSTYYADSVKGRFTISRDNAKNTVYLQMNSLKPEDTAVYYCAADWLDESFSYGPYYYWGQGTQVTVSS | low polyreactivity
18 | QVQLVESGGGFVQAGGSLRLSCAGSGSTFTSYAMGWYRQAPGKERELVASIRSTSGRTYYADSVKGRFTISRDNAKNTVYLQMNSQKPQDTAVYYCAAATYGTWWTYADNPYDYWGQGTQGTVSS | high polyreactivity
19 | QVQLVESGGGLVQAGGSLRLSCAASGSNFVYNAMGWYRPAPGKERELVAAITGRVGSTYYADSVKGRFTISRDNAKNTVYLQMISLKPEDTAVYYCAARSYFKWWYAMDYWGQGTQVSVSS | high polyreactivity
20 | QVQLVESGGGLVQAGGSLRLSCAASGRIFPVNAMGWYRQAPGKERELVATISRGGNTYYADSVKGRFTISRDNAKNTVYLQMNSLKPEDTAVYYCNVDRGNPVPPSEYWGQGTQVTVSS | low polyreactivity
21 | QFQLVESGVGLVQAGGSLRLSCAASVRINYAYAMGWYRQTPGKERELVAAISTRGGNTYYADSVKGRFTISRDNAMNTVYLQINSLIPEETEVYYCNALSVSRRFGYDSWGQGTQVTVSS | high polyreactivity
22 | QVQLVESGGGLVQAGGSLRLSCAASGLIFGYYAMGWYRQAPGTEREFVAAIDGSDGTTYYADSVKGRFTISRDNAKNTVYLQMNSLKPEDTAVYYCNAESSSYSCDMGYDYWGQGTQVTVSS | low polyreactivity

Row | Sequence | polyreactivity (PSR sort gate)
23 | QGQHVETGGGLVQAGCTLRLSCAASGFTCGNYAMGWYRQAPGKGRELVAAIDSDGSTDYADAVKGRFTISRDNAKNTVYLQMNSLKPEDTAVYYCAARFDYGPRGCDYWGPGTQVTVSS | low polyreactivity
24 | QVQLVESGGGLVQAGGSLRLSCAASGRISGYNMGWYRQAPGKERELVAAISNGGSTNYADSVKGRFTISRDNAKNTVYLQMNSLKPEDTAVYYCNRRVPYSFYSRGYYYWGQGTQVTVSS | high polyreactivity
25 | QVQLVESGGGLEQAGGRLRLSCAASGFTFDFYAMGWYRQAPGKERQLVAAISKNDGTTYYADSVKGRFTISRDNAKNTVYLQMNSLKPEDTAVYYCAAESGYPVYTYVSSGDYWGQGTQVTVSS | low polyreactivity
26 | QVQLVESGGGLVQAGGSLRLSCAASGFNFTRYAMGWYRQAPGKERELVAAISSGSRTYYADSVKGRFTISRDNAKNTVYLQMISLKPEDTAVYYCAAPVYTYYGHYDSWGQGTQVTVSS | high polyreactivity
27 | QVQLVESGGGLVQAGGSLRLSCAASGSIFHANAMGWYRQAPGKERELVAVISQGGGSTYYADSVKGRFTISRDNAKNTVYLQMNSLKPEDTAVYYCAAYYYYSAYGDDYWGQGTQVTVSS | high polyreactivity
28 | QDQIVESGGGVVQAGGSLRLSCASSGRIFYDYLGWNRQAPGKETELDADISSGGSTHYADSVKGRFTISRDNAKNTVYLQMNSLKGEDTAVYYCIAVLVLSYDKDWRLIEMDYWGQGTHVTVSS | low polyreactivity
29 | QVQLVESGGGLVQAGGSLRLSCAASGRTFGVYAMGWYRQAPGKERELVAGIRWRGGSTYYADSVKGRFTISRDNAKNTVYLQMNSLKPEDTAVYYWAARVQFPYPDYAWITVLYDYWGQCTQVTVSS | low polyreactivity
30 | QVQLVESGGGLVQAGGSLRLSCAASGFTFPFYTMGWYRQAPGKERELVAAITFSGDSTYYADSVKGRFTISRDNAKNTVYLQMNSLKPEDTAVYYCAVASYWGPEYDYWGQGTQVTVSS | low polyreactivity
31 | QVQLVESGGGLVQAGGSLRLSCAASGITFVNYAMGWYRQAPGKERELVAAISNGGSTYYADSVKGRFTISRDNAKNTVYLQMNSLKPEDTAVYYCAAKPVQKFRPRYGYWGQGTQVTVSS | high polyreactivity
32 | QVHLQESAGGLVQAGGSLRLTCSASGYISFDASMGWYRQAPGKERELAASIPKGSSTNYADSVKGRFTIRDNATITVYLQMNSLQPEDTAVCYCAVTYPYWGDYTYWGQGTQVTVSC | low polyreactivity
33 | QVQLVESGGGLVQAGGSLRLSCAASGRTFTIYARGWYRQAPGKERELVAAITSGGSTYYADSVKGRFTISRDNAKNTVYLQMNSLKPEDTAVYYCDRGYAVSLVSRYDYWGQGTQVTVSS | low polyreactivity
34 | QVQLVESGGGLVQAGGSLRLSCAASGRIFPFYVMGWYRQAPGKERELVATINWSGGSTYYADSVKGRFTISRDNAKNTVYLQMNSLKPEDNAVYYCNAAPSDDYDYWGQGTQVTVSS | low polyreactivity
35 | QVQLVESGGGLVQAGGSLRLSCAASGIIFSQYAMGWYRQAPGKERELVASISSGGRTNYADSVKGRFTISRDNAKNTVYLQMNSLKPEDTAVYYCATRYRYKRYAASVQYDYWGQGTQVTVSS | high polyreactivity
36 | QVQLVESGGGLVQAGGSLRLSCAASGRIFTNNAMGWYRQEPGKERELVAAISRSGGRTYYADSVKGRFTISRDIAKNTVYLQMNSLKPEDTAVYYCAAVHLFYGYNSPFTMDYWGQGTQVTVSS | high polyreactivity
37 | QVQLVESGGGLVQAGGILRLSCAASGNILRFNARGWYRPAPGKEMELVAAISRSGGTTYYADSEKGRFTISRDYAKNTVYLQMNSLKPEDTAVYYCADRYRYGESPGYYWGHGTQVTVSS | high polyreactivity
38 | QVQHVESGGGLVQAGGSLRLSCAASGRTFGQNAMGWYRQAPGKERELVASIRSGGITDYADSVKGRFTISRDNAKNTVYLHMNSLKPEDTAVYYCNAEGVWWSTRYDSWGQGTQVTVSA | low polyreactivity
39 | QVQLVESGGGLVQAGGSLRLSCAASGSTFVHYAMGWYRQAPGKERELVAAITWSGGSTYYADSVKGRFTISRDNAKNTVYLPMNSLKPEDTAVYYCAARNFGAWRWYSYGAHLGSEYWGQGTQVTVSS | low polyreactivity
40 | QVQLVESGGGLVQAGGSLRLSCAASGSIFLSNAMGWYRQAPGKERELVAAISRRGASTYYADSVKGRFTISRDNAKNTVYFQMNSLKPEDTAVYYCAALSYSAYGYNYWGQGTQVTVSS | high polyreactivity
41 | QVQLVETGGGLVHAGGSLRLSCAASGITFTTNTMGWYRQAPGKERELVAAISSTGGNTFYADSVKGRFTISRDNAKNTVYLQMNSLKPEDTAVYYCSYVPSNARGEYDSWGQGTQVTVSS | low polyreactivity
42 | QVQLVESGGGLVQAGGSLRLSCAASGYILRSNAMGWYRQAPGKEREFVAAITYSGGSTYYADSEKGRFTISLDNAMNSVYLQMNSLKPEDTAVYYCAKTTRYQRGYGYWGQGTQVTVSS | low polyreactivity
43 | QVQLVETGGGLVQAGGSLRLSCAASGIIFSRYAMGWYRQAPGIERELVASITGRVGSTYYADSVKGRFTISRDNAKNTVYLQMNRLKPEDTAVYYCAADYGYKFDYWGQGTQVTVSA | low polyreactivity

— the nanobody polyreactivity screen of Harvey et al. (2022)
